Experimental data: patent US20250092146A1, “ANTI-CCR8 ANTIBODIES, CONJUGATES, AND USES THEREOF” (Abilita Bio, Inc., priority 2023, published 2025)
Values belong to the molecule of their own block, whether it stands above or below them.

Key:
[1] = molecular target: T1, hCCR8 (Homo sapiens, UniProt P51685); test: Flow cytometry binding of purified VHHs to HEK293 cells expressing hCCR8; details: monovalent VHH, FIG. 1
T1 construct: expressed in transfected cells
Procedure: Recombinant cells expressing hCCR8 were resuspended to a final concentration of 1.0×10^6 cells/ml in FACS buffer. Surface expression of hCCR8 on transiently transfected HEK293 cells was confirmed by flow cytometry of HEK293 cells stained with PE anti-hCCR8 (Clone 433H, BD Biosciences, #566897) antibody. Dilutions of purified VHHs were incubated with cells for 60 min. Individual samples were distributed into 96-well v-bottom plates and incubated for one hour at 4° C. Bound VHH were then detected with an anti-VHH specific antibody (Goat anti-alpaca VHH, Jackson ImmunoResearch, #128-605-232). […] Binding was determined in parallel on HEK293 cells stably expressing the closely related receptor hCCR7 (SEQ ID NO: 41), as control for binding specificity.

[2] = test system: MC38 mouse colon cancer cells; test: MC38 tumor growth inhibition study in human CCR8 transgenic mice; assay type: in vivo; details: 30 mg/kg IV 3 times per week, Day 16, p=0.0169
Procedure: Human CCR8 transgenic (hCCR8-tg) mice (#110096, Biocytogen, China) were inoculated with MC38 mouse colon cancer cells subcutaneously. After the average tumor size reached approximately 150 mm3, mice were randomized based on tumor size and treatment was initiated. Mice were treated IV 3 times per week with 30 mg/kg VHH-1-mFc (SEQ ID NO: 239) or an IgG2a Fc control (recombinant IgG2a Fc, #BE0097, BioXcell). Tumor volume was measured twice per week using a caliper, and the volume expressed in mm3 using the formula: V (mm3)=(a×b2)/2 where a and b were the long and short diameters of the tumor, respectively. The tumor size was then used for calculations of tumor growth inhibition (T/C) values (where T was the treatment group and C is the control group). The T/C value (in percent) is an indication of antitumor effectiveness; T and C were the mean volume of the treated and control groups, respectively, on a given day. […] To determine whether group treated with various test articles had statistically significant anti-tumor effects compared to the mouse IgG2a Fc control, the MC38 tumor volumes were analyzed by one-way ANOVA and multiple comparison test at day 16. […] In addition, the tumor growth inhibition (TGI) was also calculated during the study until Day 16. On Day 16, the TGIs for VHH-1-mFc were 50.3%, (p=0.0169).

[3] = molecular target: T2, HuT-78 cells that naturally express human CCR8 (Homo sapiens, UniProt P51685); test: Flow cytometry binding of yeast-display optimized VHH-Fc antibodies to HuT-78 cells; details: Table 13
T2 construct: HuT-78 cells that naturally express human CCR8 were used as target cells; endogenous in cells; host or cells: HuT-78
T2 sequence (P51685 whole entry): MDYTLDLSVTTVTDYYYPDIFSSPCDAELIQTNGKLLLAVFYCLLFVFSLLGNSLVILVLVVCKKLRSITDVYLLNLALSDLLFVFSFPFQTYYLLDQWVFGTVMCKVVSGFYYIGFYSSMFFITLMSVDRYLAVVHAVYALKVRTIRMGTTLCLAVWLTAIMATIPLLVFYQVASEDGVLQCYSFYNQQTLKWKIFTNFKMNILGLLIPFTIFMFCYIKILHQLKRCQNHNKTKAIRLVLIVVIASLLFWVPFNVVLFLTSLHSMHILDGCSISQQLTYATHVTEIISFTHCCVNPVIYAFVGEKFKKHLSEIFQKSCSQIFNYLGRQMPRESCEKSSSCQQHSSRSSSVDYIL
From the text: Top VHH sequences were chosen from the FACS sorted populations based on an analysis of improved binding performance relative to the parental sequences and evidence of sequence enrichment by NGS. Candidate VHH were then cloned as VHH-Fc fusions to the short hinge of the IgG1 Fc domain (SEQ ID NO: 34), expressed in HEK293 cells as described earlier and purified for binding evaluation. Bmax values are shown as normalized to VHH-1 or VHH-2 depending on the clone family. […] Mutations are referenced by position according to the IMGT definition.

[4] = molecular target: T1, hCCR8; test: Flow cytometry binding of VHH-Fc fusion antibodies to hCCR8 on stably transfected HEK293 cells; details: Table 11
Procedure: VHH-Fc fusion antibodies were evaluated for their ability to bind to hCCR8 on stably transfected HEK293 cells by means of flow cytometry. Cells were incubated with different concentrations of the bivalent VHH-Fc fusions for 60 minutes at 4° C., followed by two washes with FACS buffer, followed by 30 minutes incubation at 4° C. with the Zenon R-Phycoerythrin Anti-human IgG (ThermoFisher Scientific, #Z-25455), and two additional washing steps. Data were plotted and fit using GraphPad Prism software. EC50 and Bmax values individual antibodies were calculated from the resulting dose-response curves. Bivalent VHH-Fc fusions (Seq ID NOs: 31, 33, and 87-103) of 19 different VHH domains (SEQ ID NOs: 27, 28, and 70-86) were tested for cell binding and results are shown in Table 7. […]
VHH-Fc fusion DNA constructs were then generated comprising encoding humanized VHH sequences (SEQ ID NOs: 106-111) fused in frame to the human IgG1 (SEQ ID NO: 34) directly to the short hinge sequence in the pFuse expression vector, and were expressed, purified and analyzed for binding to HEK293 cells expressing human CCR8 as in Example 5. Binding curves for VHH-Fc antibodies comprised of parental VHH-1 and the humanized VHH derivatives VHH-1.2-Fc and VHH-1.3-Fc are shown in FIG. 9A. Binding curves for VHH-Fc antibodies comprised of parental VHH-2 and the humanized VHH derivatives VHH-2-Fc, VHH-2.2-Fc and VHH-2.3-Fc, are shown in FIG. 9B. Cell binding EC50 values, normalized Bmax (relative to respective parental clone) data and humanizing mutations are shown in Table 10 below.
Approaches such as in vitro affinity maturation and rational mutagenesis can be performed to regain binding affinity and/or stability lost through humanization. In vitro affinity maturation generally involves building and amino acid substitution library where amino acid positions are varied across the CDRs and/or framework at a defined set of positions using sets of amino acids chosen to introduce new chemical diversity. The paratope residues within the CDR regions are of course key to antigen binding and care must be taken not to disrupt important structures while attempting to evolve improve antibody behavior. One approach to identify positions that are important to the maintenance of binding properties is to perform paratope mapping using single scanning alanine substitutions across antibody CDR regions. In this approach, residues that are critical to the maintenance of antibody binding to the antigen can be identified and at the same time permissive sites can be identified where it may be possible to make substitutions of other amino acids desirable for subsequent affinity maturation library construction. Site directed mutagenesis was used to make single alanine substitutions at each residue in the CDRs of VHH-1 (SEQ ID NO: 27) and VHH-2 (SEQ ID NO: 28). Changes in VHH-1 CDR amino acids to alanine are indicated in Table 11 (SEQ ID NOs: 112-137) and for VHH-2 CDRs (SEQ ID NO: 138-162) in Table 12. Mutation positions and residue changes to alanine with respect to the in the parental VHH sequences are referenced by their IMGT position. VHH domains containing the indicated modified CDR-1, CDR-2 or CDR-3 domains were used to construct Fc fusions by direct grafting to the short hinge of the human Fc domain (SEQ ID NO: 34). VHH-Fc constructs were expressed, purified and analyzed for binding to HEK293 cells expressing hCCR8 and the results are reported in Table 11 and Table 12. EC50 values are reported for each Fc fusion antibody containing a modified CDR, along with its respective Bmax value normalized to the to the matched wild type VHH-1-Fc or VHH-2-Fc fusion antibody.

T1 sequence (P51685 whole entry): as above

B1: VHH-3: llama anti-hCCR8 VHH, SEQ ID NO: 29 (protein)
VHH: QVQLQESGGGLVQAGGSLRLSCVASGSTSSIRRIGWYRQAPGKQRELVARFSSGGGTNYADFVKGRFTISGDNAKNTMYLQMNSLKPEDTAVYYCGARRLLGTSRVDYWGQGTQVTVSS
binding specificity hCCR8 vs human CCR7 [1]: specific binding to hCCR8 overexpressed in HEK293 cells and not to human CCR7

B2: VHH-1-mFc: VHH-1 fused to hinge of mouse IgG2a Fc, SEQ ID NO: 239 (protein)
chain: QVQLQESGGGLVQAGGSLRLSCVASGSTSSIRRIGWYRQAPGKQRELVARFSSGGGTNYADFVKGRFTISGDNAKNTMYLQMNSLKPEDTAVYYCSARRLLGTSRVDYWGQGTQVTVSSEPRGPTIKPCPPCKCPAPNLLGGPSVFIFPPKIKDVLMISLSPIVTCVVVDVSEDDPDVQISWFVNNVEVHTAQTQTHREDYNSTLRVVSALPIQHQDWMSGKEFKCKVNNKDLPAPIERTISKPKGSVRAPQVYVLPPPEEEMTKKQVTLTCMVTDFMPEDIYVEWTNNGKTELNYKNTEPVLDSDGSYFMYSKLRVEKKNWVERNSYSCSVVHEGLHNHHTTKSFSRTPGK
fold smaller tumor volume than isotype control [2]: 1.8 fold
tumor growth inhibition (TGI) [2]: 50.3%

EC50 ([3]; clones tested as VHH-Fc fusions (human IgG1 Fc), HuT-78 cells): 2.56 nM
Normalized Bmax (%) ([3]; normalized to VHH-1 or VHH-2 depending on clone family): 100.0%
EC50 ([4]; VHH-1 CDR alanine mutants as human Fc fusions, HEK293 hCCR8): 1.73 nM
% Bmax ([4]; normalized to wild type VHH-1-Fc): 100%
B3: VHH-1: llama anti-hCCR8 VHH, SEQ ID NO: 27; in Tables 11 and 13 tested as human IgG1 Fc fusion (protein)
VHH: QVQLQESGGGLVQAGGSLRLSCVASGSTSSIRRIGWYRQAPGKQRELVARFSSGGGTNYADFVKGRFTISGDNAKNTMYLQMNSLKPEDTAVYYCSARRLLGTSRVDYWGQGTQVTVSSHHHHHH
modifications: left off: small tags and cut ends
binding specificity hCCR8 vs human CCR7 [1]: specific binding to hCCR8 overexpressed in HEK293 cells and not to human CCR7
